In patent US11123413B2, “Carbapenemases for use with antibiotics for the protection of the intestinal microbiome” (priority 2015, dated 2021):

Assays:
[1] = KPC and NDM stability in mixed human chyme versus buffer (CENTA); format: in vitro ADME; conditions: 100 μM ZnSO4, 37° C., 80 ng/mL
Experimental: The stability of KPC and NDM in human chyme at 37° C. was evaluated by adding purified KPC or NDM (final concentration of 80 ng/mL) to mixed human chyme that contained equal volumes of each of five human chyme specimens collected from five different donors. ZnSO4 was added to the mixed chyme for a final concentration of 100 μM ZnSO4. Aliquots of the enzyme/chyme mixture were collected at 0, 30, 60, 120, 180, and 240 minutes of incubation and evaluated for beta-lactamase activity with a chromogenic assay using the CENTA reagent as the substrate. The biological activity of the enzymes in the mixed chyme was compared to the activity in buffer (HEPES buffer, 100 μM ZnSO4 pH 6.2).

[2] = tested on: E. coli (ATCC 25922); assay: Antibiotic inactivation screening assay via E. coli growth (96 well plate, OD625); format: cell-based; conditions: 10 ng/ml or 100 ng/ml enzyme (FIG. 35)
[3] = Oral P2A and intravenous cefotaxime in jejunal-fistulated dogs; format: in vivo, laboratory beagles; conditions: peroral P2A 1 mg/kg, intravenous cefotaxime 60 mg/kg, omeprazole
Experimental: The ability of P2A to degrade cefotaxime in the dog intestinal tract was evaluated using laboratory beagles that had permanent jejunal fistulas. The fistulas allowed the repeated collection of jejunal chyme specimens from these animals. Dogs were treated with peroral P2A (1 mg/kg) in a liquid formulation (PBS buffer), and/or intravenous cefotaxime (60 mg/kg). A single dose of omeprazole (10 mg) was delivered orally to each dog prior to treatment with ceftriaxone and/or P2A to inhibit the HCl activity in the stomach to potentially reduce P2A degradation. Serum samples were collected and serum cefotaxime levels quantified. Jejunal chyme samples were collected and cefotaxime and P2A levels were quantified. Cefotaxime levels in serum and chyme were measured using a plate diffusion method using cefotaxime susceptible Micrococcus luteus TS504 as the test strain. P2A activity levels in chyme were determined spectrophotometrically using meropenem as a substrate. Meropenem hydrolysis was monitored at a wavelength of 297 nm.

[4] = Oral P2A and intravenous ceftriaxone in jejunal-fistulated dogs; format: in vivo, laboratory beagles; conditions: peroral P2A 2.5 mg/kg, intravenous ceftriaxone 30 mg/kg, omeprazole
Experimental: The ability of P2A to degrade ceftriaxone in the dog intestinal tract was evaluated using laboratory beagles that had permanent jejunal fistulas. The fistulas allowed the repeated collection of jejunal chyme specimens from these animals. Dogs were treated with peroral P2A (2.5 mg/kg) in a liquid formulation (PBS buffer), and/or intravenous ceftriaxone (30 mg/kg). A single dose of omeprazole (10 mg) was delivered orally to each dog prior to treatment with ceftriaxone and/or P2A to inhibit the HCl activity in the stomach to potentially reduce P2A degradation. Serum samples were collected and serum ceftriaxone levels quantified. Jejunal chyme samples were collected and ceftriaxone and P2A levels were quantified. Ceftriaxone levels in serum and chyme were measured using a plate diffusion method using ceftriaxone susceptible Micrococcus luteus TS504 as the test strain. P2A activity levels in chyme were determined spectrophotometrically using meropenem as a substrate. Meropenem hydrolysis was monitored at a wavelength of 297 nm.

[5] = P2A enteric-coated pellets and intravenous cefotaxime in jejunal-fistulated dogs; format: in vivo, laboratory beagles; conditions: enteric-coated pellets, 0.5 mg/kg or 0.25 mg/kg P2A, intravenous cefotaxime 120 mg/kg
Experimental: An enteric-coated pellet formulation of P2A was produced using methods similar to that used successfully for the production of the P1A enteric-coated pellets (e.g. sucrose core particles, pH-dependent polymer Eudragit L 30 D-55 coating, see Tarkkanen, Antimicrobial Agents and Chemotherapy, June 2009, p. 2455-2462, the entire contents of which are hereby incorporated by reference).
The ability of P2A to degrade cefotaxime in the dog intestinal tract was evaluated using laboratory beagles that had permanent jejunal fistulas. The fistulas allowed the repeated collection of jejunal chyme specimens from these animals. Dogs were treated with peroral P2A enteric-coated pellets at two doses, 0.5 mg/kg or 0.25 mg/kg of P2A content and/or intravenous cefotaxime (120 mg/kg). The dosing was performed twice. Animals were fed 20 minutes before P2A was delivered orally. Each animal received 3-5 P2A capsules, dependent on the P2A dose and the body weight. Cefotaxime was delivered intravenously 10 minutes after P2A administration. […] Cefotaxime levels in chyme were measured using a plate diffusion method using cefotaxime susceptible Micrococcus luteus TS504 as the test strain. P2A activity levels in chyme were determined spectrophotometrically using meropenem as a substrate. Meropenem hydrolysis was monitored at a wavelength of 297 nm.

[6] = P2A stability in human chyme (CENTA); format: in vitro ADME
Experimental: The stability of purified P2A when incubated in human chyme at 37° C. was evaluated by assessing aliquots withdrawn from incubated samples at 0, 0.5, 1, 2, 3, 4, 5, and 6 hours for beta-lactamase activity using a CENTA beta-lactamase substrate. Five different chyme specimens were used for evaluation of stability. The mixed chyme sample contained equal volumes of each of the five chime specimens mixed together. Chyme samples were characterized for pH, liquid content, and protease activity (Table 20).

Row | Molecule | time by which activity was lost / not detectable [1] [min] | activity against cephalosporins compared to SYN-004 or P4A [2] | cefotaxime in jejunal chyme [3] | effect on serum levels of cefotaxime [3] | ceftriaxone in jejunal chyme [4] | effect on serum levels of ceftriaxone [4] | cefotaxime degradation in the intestinal tract [5] | overall cefotaxime levels in chyme [5] | activity in chyme 3 sample ([6]; chyme 3 (pH 5.6)) | stability in pH-adjusted chyme 3 ([6]; chyme 3 adjusted to pH 7.0 using NaOH) | beta-lactamase activity in individual chyme samples ([6]; five individual human chyme samples, 100 uM ZnSO4) | beta-lactamase activity in mixed chyme without additional zinc ([6]; mixed human chyme, no added zinc, 37° C.)
1 | NDM: New Delhi metallo-β-lactamase NDM-1; NDM-68 = product of strain STY-NP1602-68 (STII Δ35, N-terminal GQQMETG) (protein) GQQMETGDQRFGDLVFRQLAPNVWQHTSYLDMPGFGAVASNGLIVRDGGRVLVVDTAWTDDQTAQILNWIKQEINLPVALAVVTHAHQDKMGGMDALHAAGIATYANALSNQLAPQEGMVAAQHSLTFAANGWVEPATAPNFGPLKVFYPGPGHTSDNITVGIDGTDIAFGGCLIKDSKAKSLGNLGDADTEHYAASARAFGAAFPKASMIVMSHSAPDSRAAITHTARMADKLR | ≤ 30 | – | – | – | – | – | – | – | – | – | – | –
2 | P2A: broad spectrum carbapenemase, class B metallo-enzyme requiring zinc, SEQ ID NO: 37; P2A-21 = product of strain SYT-PP0602-21 (protein) ETGTISISQLNKNVWVHTELGYFNGEAVPSNGLVLNTSKGLVLVDSSWDNKLTKELIEMVEKKFQKRVTDVIITHAHADRIGGITALKERGIKAHSTALTAELAKNSGYEEPLGDLQTITSLKFGNTKVETFYPGKGHTEDNIVVWLPQYQILAGGCLVKSAEAKDLGNVADAYVNEWSTSIENVLKRYGNINSVVPGHGEVGDKGLLLHTLDLLK | – | not as active against the cephalosporins, cefozolin, cefoperazone, cefepime, and ceftazidime | degraded cefotaxime | does not reduce serum levels of cefotaxime | degraded ceftriaxone | does not reduce serum levels of ceftriaxone | degraded cefotaxime | lower overall levels of cefotaxime in their chyme | rapidly declined | improved | relatively stable in four of five individual chyme samples | declined more rapidly
